To fix the notation:
T1: human MIC-1 receptor (hGFRAL, GDNF family receptor alpha like) (human, UniProt Q6UXV0 19-394)
T1 sequence (looked up): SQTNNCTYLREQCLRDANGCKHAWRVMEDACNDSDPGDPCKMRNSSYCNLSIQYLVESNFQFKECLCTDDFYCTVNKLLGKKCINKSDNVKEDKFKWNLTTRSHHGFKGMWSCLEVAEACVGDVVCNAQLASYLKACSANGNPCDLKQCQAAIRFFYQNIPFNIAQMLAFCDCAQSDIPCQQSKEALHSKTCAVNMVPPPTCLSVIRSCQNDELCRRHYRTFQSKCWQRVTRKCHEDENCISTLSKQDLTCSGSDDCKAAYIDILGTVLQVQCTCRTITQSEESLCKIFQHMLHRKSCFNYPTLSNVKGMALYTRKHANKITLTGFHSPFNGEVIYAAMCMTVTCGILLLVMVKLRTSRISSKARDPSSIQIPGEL

B1: (GEPS)5-MIC-1 (SEQ ID NO: 1) (ligand)
chain: GEPSGEPSGEPSGEPSGEPSARNGDHCPLGPGRCCRLHTVRASLEDLGWADWVLSPREVQVTMCIGACPSQFRAANMHAQIKTSLHRLKPDTVPAPCCVPASYNPMVLIQKTDTGVSLQTYDDLLAKDCHCI
B2: TSESATPESGPGTSESATPESGPG-MIC-1(R2A, N3E) (ligand)
chain: TSESATPESGPGTSESATPESGPGAAEGDHCPLGPGRCCRLHTVRASLEDLGWADWVLSPREVQVTMCIGACPSQFRAANMHAQIKTSLHRLKPDTVPAPCCVPASYNPMVLIQKTDTGVSLQTYDDLLAKDCHCI
B3: AEEAES-MIC-1-Δ1-3 (ligand)
chain: AEEAESGDHCPLGPGRCCRLHTVRASLEDLGWADWVLSPREVQVTMCIGACPSQFRAANMHAQIKTSLHRLKPDTVPAPCCVPASYNPMVLIQKTDTGVSLQTYDDLLAKDCHCI
B4: (AEE)2AES-MIC-1-Δ1-3 (ligand)
chain: AEEAEEAESGDHCPLGPGRCCRLHTVRASLEDLGWADWVLSPREVQVTMCIGACPSQFRAANMHAQIKTSLHRLKPDTVPAPCCVPASYNPMVLIQKTDTGVSLQTYDDLLAKDCHCI
B5: AASPAGSPTSTEEGTSESATPESGPG-MIC-1-Δ1-3 (ligand)
chain: AASPAGSPTSTEEGTSESATPESGPGGDHCPLGPGRCCRLHTVRASLEDLGWADWVLSPREVQVTMCIGACPSQFRAANMHAQIKTSLHRLKPDTVPAPCCVPASYNPMVLIQKTDTGVSLQTYDDLLAKDCHCI
B6: SPAGSPTSTEEGTSESATPESGPG-MIC-1 (SEQ ID NO: 1) (ligand)
chain: SPAGSPTSTEEGTSESATPESGPGARNGDHCPLGPGRCCRLHTVRASLEDLGWADWVLSPREVQVTMCIGACPSQFRAANMHAQIKTSLHRLKPDTVPAPCCVPASYNPMVLIQKTDTGVSLQTYDDLLAKDCHCI
B7: MIC-1 (SEQ ID NO: 1) (ligand)
chain: ARNGDHCPLGPGRCCRLHTVRASLEDLGWADWVLSPREVQVTMCIGACPSQFRAANMHAQIKTSLHRLKPDTVPAPCCVPASYNPMVLIQKTDTGVSLQTYDDLLAKDCHCI
B8: MIC-1(R2A, N3E, L105E) (ligand)
chain: AAEGDHCPLGPGRCCRLHTVRASLEDLGWADWVLSPREVQVTMCIGACPSQFRAANMHAQIKTSLHRLKPDTVPAPCCVPASYNPMVLIQKTDTGVSLQTYDDLEAKDCHCI
B9: MIC-1(R2A, N3E, M57E) (ligand)
chain: AAEGDHCPLGPGRCCRLHTVRASLEDLGWADWVLSPREVQVTMCIGACPSQFRAANEHAQIKTSLHRLKPDTVPAPCCVPASYNPMVLIQKTDTGVSLQTYDDLLAKDCHCI
B10: MIC-1(R2A, N3E, H18E) (ligand)
chain: AAEGDHCPLGPGRCCRLETVRASLEDLGWADWVLSPREVQVTMCIGACPSQFRAANMHAQIKTSLHRLKPDTVPAPCCVPASYNPMVLIQKTDTGVSLQTYDDLLAKDCHCI
B11: MIC-1(R2A, N3E, K69E) (ligand)
chain: AAEGDHCPLGPGRCCRLHTVRASLEDLGWADWVLSPREVQVTMCIGACPSQFRAANMHAQIKTSLHRLEPDTVPAPCCVPASYNPMVLIQKTDTGVSLQTYDDLLAKDCHCI
B12: MIC-1(R2A, N3E, R53E) (ligand)
chain: AAEGDHCPLGPGRCCRLHTVRASLEDLGWADWVLSPREVQVTMCIGACPSQFEAANMHAQIKTSLHRLKPDTVPAPCCVPASYNPMVLIQKTDTGVSLQTYDDLLAKDCHCI
B13: MIC-1(R2A, N3E, P11E) (ligand)
chain: AAEGDHCPLGEGRCCRLHTVRASLEDLGWADWVLSPREVQVTMCIGACPSQFRAANMHAQIKTSLHRLKPDTVPAPCCVPASYNPMVLIQKTDTGVSLQTYDDLLAKDCHCI
B14: MIC-1(R2A, N3E, L68E) (ligand)
chain: AAEGDHCPLGPGRCCRLHTVRASLEDLGWADWVLSPREVQVTMCIGACPSQFRAANMHAQIKTSLHREKPDTVPAPCCVPASYNPMVLIQKTDTGVSLQTYDDLLAKDCHCI
B15: MIC-1(R2A, N3E) (ligand)
chain: AAEGDHCPLGPGRCCRLHTVRASLEDLGWADWVLSPREVQVTMCIGACPSQFRAANMHAQIKTSLHRLKPDTVPAPCCVPASYNPMVLIQKTDTGVSLQTYDDLLAKDCHCI
B16: MIC-1(R2A, N3E, A47E) (ligand)
chain: AAEGDHCPLGPGRCCRLHTVRASLEDLGWADWVLSPREVQVTMCIGECPSQFRAANMHAQIKTSLHRLKPDTVPAPCCVPASYNPMVLIQKTDTGVSLQTYDDLLAKDCHCI
B17: AES-MIC-1-Δ1-3 (ligand)
chain: AESGDHCPLGPGRCCRLHTVRASLEDLGWADWVLSPREVQVTMCIGACPSQFRAANMHAQIKTSLHRLKPDTVPAPCCVPASYNPMVLIQKTDTGVSLQTYDDLLAKDCHCI
B18: MIC-1(R2A, N3E, R67E) (ligand)
chain: AAEGDHCPLGPGRCCRLHTVRASLEDLGWADWVLSPREVQVTMCIGACPSQFRAANMHAQIKTSLHELKPDTVPAPCCVPASYNPMVLIQKTDTGVSLQTYDDLLAKDCHCI
B19: MIC-1(R2A, N3E, K107E) (ligand)
chain: AAEGDHCPLGPGRCCRLHTVRASLEDLGWADWVLSPREVQVTMCIGACPSQFRAANMHAQIKTSLHRLKPDTVPAPCCVPASYNPMVLIQKTDTGVSLQTYDDLLAEDCHCI
B20: MIC-1(R2A, N3E, A30E) (ligand)
chain: AAEGDHCPLGPGRCCRLHTVRASLEDLGWEDWVLSPREVQVTMCIGACPSQFRAANMHAQIKTSLHRLKPDTVPAPCCVPASYNPMVLIQKTDTGVSLQTYDDLLAKDCHCI
B21: MIC-1(R2A, N3E, R21E) (ligand)
chain: AAEGDHCPLGPGRCCRLHTVEASLEDLGWADWVLSPREVQVTMCIGACPSQFRAANMHAQIKTSLHRLKPDTVPAPCCVPASYNPMVLIQKTDTGVSLQTYDDLLAKDCHCI
B22: MIC-1(R2A, N3E, P85E) (ligand)
chain: AAEGDHCPLGPGRCCRLHTVRASLEDLGWADWVLSPREVQVTMCIGACPSQFRAANMHAQIKTSLHRLKPDTVPAPCCVPASYNEMVLIQKTDTGVSLQTYDDLLAKDCHCI
B23: MIC-1(R2A, N3E, A54E) (ligand)
chain: AAEGDHCPLGPGRCCRLHTVRASLEDLGWADWVLSPREVQVTMCIGACPSQFREANMHAQIKTSLHRLKPDTVPAPCCVPASYNPMVLIQKTDTGVSLQTYDDLLAKDCHCI
B24: (AEE)6AES-MIC-1(SEQ ID NO: 1) (ligand)
chain: AEEAEEAEEAEEAEEAEEAESGDHCPLGPGRCCRLHTVRASLEDLGWADWVLSPREVQVTMCIGACPSQFRAANMHAQIKTSLHRLKPDTVPAPCCVPASYNPMVLIQKTDTGVSLQTYDDLLAKDCHCI
B25: (AEE)5AES-MIC-1-Δ1-3 (ligand)
chain: AEEAEEAEEAEEAEEAESGDHCPLGPGRCCRLHTVRASLEDLGWADWVLSPREVQVTMCIGACPSQFRAANMHAQIKTSLHRLKPDTVPAPCCVPASYNPMVLIQKTDTGVSLQTYDDLLAKDCHCI
B26: AASPAGSPTSTEEGTSESATPESGPG-MIC-1 (SEQ ID NO: 1) (ligand)
chain: AASPAGSPTSTEEGTSESATPESGPGARNGDHCPLGPGRCCRLHTVRASLEDLGWADWVLSPREVQVTMCIGACPSQFRAANMHAQIKTSLHRLKPDTVPAPCCVPASYNPMVLIQKTDTGVSLQTYDDLLAKDCHCI
B27: (AEE)3AES-MIC-1-Δ1-3 (ligand)
chain: AEEAEEAEEAESGDHCPLGPGRCCRLHTVRASLEDLGWADWVLSPREVQVTMCIGACPSQFRAANMHAQIKTSLHRLKPDTVPAPCCVPASYNPMVLIQKTDTGVSLQTYDDLLAKDCHCI

This experiment has as its target T1, human MIC-1 receptor (hGFRAL, GDNF …). As to the kind of experiment: cell-based or functional assay.
On to B1, for which the “pERK EC50 (nM)” value came out at 0.5 nM and the “pERK Emax (%)” value amounted to 100%.
Consider B2, for which the “pERK EC50 (nM)” value was determined as 0.3 nM and the “pERK Emax (%)” value was 100%.
Consider B3, for which the “pERK EC50 (nM)” value is 0.3 nM and the “pERK Emax (%)” value is 100%.
The corresponding values for B4 are 0.4 nM and 100%.
For B5, the “pERK EC50 (nM)” value turned out to be 0.7 nM and the “pERK Emax (%)” value is 100%.
The corresponding values for B6 are 0.4 nM and 100%.
The corresponding values for B7 are 0.3 nM and 100%.
With B8, the “pERK EC50 (nM)” value was 0.7 nM and the “pERK Emax (%)” value was 100%.
The like results for B9 were, in that order, 0.3 nM and 70%.
The like results for B10 were, in that order, 0.5 nM and 100%.
For the molecule B11, the “pERK EC50 (nM)” value came out at 0.5 nM and the “pERK Emax (%)” value was found to be 100%.
As for B12, the “pERK EC50 (nM)” value was determined as 0.4 nM and the “pERK Emax (%)” value was 100%.
Turning to B13, the “pERK EC50 (nM)” value was 0.4 nM and the “pERK Emax (%)” value was found to be 100%.
The like results for B14 were, in that order, 0.8 nM and 100%.
Turning to B15, the “pERK EC50 (nM)” value worked out at 0.3 nM and the “pERK Emax (%)” value stood at 100%.
The like results for B16 were, in that order, 0.4 nM and 100%.
The corresponding values for B17 are 0.3 nM and 100%.
On to B18, for which the “pERK EC50 (nM)” value was 0.5 nM and the “pERK Emax (%)” value is 100%.
Regarding B19, the “pERK EC50 (nM)” value was determined as 0.3 nM and the “pERK Emax (%)” value turned out to be 100%.
As to B20, the “pERK EC50 (nM)” value was 0.7 nM and the “pERK Emax (%)” value was 100%.
The like results for B21 were, in that order, 0.6 nM and 100%.
On to B22, for which the “pERK EC50 (nM)” value came out at 0.6 nM and the “pERK Emax (%)” value came to 100%.
The like results for B23 were, in that order, 0.3 nM and 100%.
The like results for B24 were, in that order, 0.8 nM and 100%.
Take B25: the “pERK EC50 (nM)” value came to 0.5 nM and the “pERK Emax (%)” value amounted to 100%.
B26: the “pERK EC50 (nM)” value came out at 0.4 nM and the “pERK Emax (%)” value is 100%.
The like results for B27 were, in that order, 0.5 nM and 100%.

The record behind these values is patent publication US12006344 (Novo Nordisk, dated 2024).
